We go through 22 sequences from the DeepSol protein solubility set.

The series in a line: soluble on expression in E. coli; label from the status in PepcDB or PDB records.
As for “LERRWRRRREAGAGAEAAAGSARPLGRQAAAARGSSPEAGAAAMAESIIIRVQSPDGVKRITATKRETAATFLKKVAKEFGFQNNGFSVYINRNKTGEITASSNKSLNLLKIKHGDLLFLFPSSLAGPSSEMETSVPPGFKVFGAPNVVEDEIDQYLSKQDGKIYRSRDPQLCRHGPLGKCVHCVPLEPFDEDYLNHLEPPVKHMSFHAYIRKLTGGADKGKFVALENISCKIKSGCEGHLPWPNGICTKCQPSAITLNRQKYRHVDNIMFENHTVADRFLDFWRKTGNQHFGYLYGRYTEHKDIPLGIRAEVAAIYEPPQIGTQNSLELLEDPKAEVVDEIAAKLGLRKVGWIFTDLVSEDTRKGTVRYSRNKDTYFLSSEECITAGDFQNKHPNMCRLSPDGHFGSKFVTAVATGGPDNQVHFEGYQVSNQCMALVRDECLLPCKDAPELGYAKESSSEQYVPDVFYKDVDKFGNEITQLARPLPVEYLIIDITTTFPKDPVYTFSISQNPFPIENRDVLGETQDFHSLATYLSQNTSSVFLDTISDFHLLLFLVTNEVMPLQDSISLLLEAVRTRNEELAQTWKRSEQWATIEQLCSEYPHPLPRHPVAGAGEQPTLHSSPLPVVPWIPHPAASWQVPSAMQRVETRPPCQARGRLR”, the “soluble on expression in E. coli” value is “soluble”.
Then “LGLWPVHRLSEEARRISPRQLSQRLQLSPLPAELRELVGAFNGALDRLEQAYVRLESFNADVAHELRTPLTNLIGQTQVALSRERSGEHYEEVLQSNLEELERLRAIVNDMLFLARADQGRLACEREETSLAGEIATTVDFLEVIFDEAGVGIEVRGEARALVERALFQRAVTNLLYNAAQHTAAGGTLRVGVERRGDEVRVAVSNPGVPIADEHRRHLFERFYRVDAARSNSEANHGLGLSIVKAVASMHGGSVFVDSADGWNTFGFTVLSPERRGPGDR”, with “not soluble”; and “LGSMESTQQMAVSIINSSFEAAVVAATSALENMGIEYDYQDIYSRVKNKFDFVMDDSGVKNNPIGKAITIDQALNNKFGSAIRNRNWLADTSRPAKLDEDVNKLRMMLSSKGIDQKMRVLNACFSVKRIPGKSSSIIKCTKLMRDKLERGEVEVDDSFVDEKME”, with “soluble”; and “LKPHIAVAISGSIYNEAVIKEAFHIAQKEHAKFTAIYIDVFEKNRQYKDSQKQVHQHLMLAKSLGAKVKVVYSQTVALGLDEWCKNQDVTKLIIGQHIRNKWRDFFNTPLIDHLMSFEHS”, with “not soluble”.
For “LKSSRFHEKILCDIGGVPMFVATARRVSSVDEVCIALDDEKVLSIAKEYGLNAVLTSKDHESGTDRINEACKKLALKDDEIIINVQADEPFIECENLLKFKEFASFCLDKKAFMASCYKKITQEEAMDPNLVKVLCDKEGYALYFSRAKIPYERENYEESFKGHLGIYAYSVKALREFCSLSSSALERAEKLEQLRAIENGKKIKMLEISTTSMGIDTKEDYERALKIYLEK”, the “soluble on expression in E. coli” value is listed as “not soluble”.
Then “LKVLKRFDIETDYGSAIIADTITGRIEYTVATGGCIFPEVSRTIQTLENMGASVFIASGDSRKFIERLGNIVGVQNKCLMPEAHHKLKRDLILNLKQDGYTVIMVGDASNDILAMEESDLSVITLQNGNVSKKALETAQIKIENISEI”, with “not soluble”.
Under “LLERVSAEAVTTTLHQVTRERMEDRCRGEYERSFLREFHKWIERVVGWLGKVFLQDGPARPASPEAGNTLRRWRCHVQRFFYRIYASLRIEELFSIVRDFPDSRPAIEDLKYCLERTDQRQQLLVSLKAALETRLLHPGVNTCDIITLYISAIKALRVLDPSMVILEVACEPIRRYLRTREDTVRQIVAGLTGDSDGTGDLAVELSKTDPASLETGQDSEDDSGEPEDWVPDPVDADPGKSSSKRRSSDIISLLVSIYGSKDLFINEYRSLLADRLLHQFSFSPEREIRNVELLKLRFGEAPMHFCEVMLKDMADSRRINANIREEDEKRPAEEQPPFGVYAVILSSEFWPPFKDEKLEVPEDIRAALEAYCKKYEQLKAMRTLSWKHTLGLVTMDVELADRTLSVAVTPVQAVILLYFQDQASWTLEELSKAVKMPVALLRRRMSVWLQQGVLREEPPGTFSVIEEERPQDRDNMVLIDSDDESDSGMASQADQKEEELLLFWTYIQAMLTNLESLSLDRIYNMLRMFVVTGPALAEIDLQELQGYLQKKVRDQQLVYSAGVYRLPKNCS” stands “soluble”; under “LLYIDNIPLVEYNNIIQVEYVVINMLKHGILGLLNYGDMTGYEIMKVFRDSLSFFWTANTSQIYRELNTLKKDGFVTDIVVKQTGKPDKKVFSITESGREELKRWLREYDYGNRNSPLCMKVFFSGELPKEENIERLREIKNEAQQAIERYSSVFETMKIYKGMVARPEDSVYWNMTVEYGIRYMKMLSEWCDCCIKILEDVEK”, “soluble”; under “LRFQMNTRQFVSCWRSHKDELIATYFDASTDSQVGKAISDLGLNAGQTASLRTVIDGVLTDAFYSLLLGLDGAASIGPVQQPYEIRAEDGSVIRDIEPEAWAQFHDRSA”, “not soluble”.
On to “LSPLPRAYQWADGSAYLNHVELVRKARGAEVPASFYTDPLMYQGGSDAFLAPTADIPLRDEAWGLDFEGEVAVVTGDVPLGAPADAKYIRLLMLVNDVTLRGLIPPELAKGFGFFQSKPATAFSPVAVTPDELGDAWDGGKVHLPLLVDYNGAFYGKPDCGVEMQFSFPQLVAHVSKTRELVAGSIVGSGTISNKDRSVGSCCLAEQRMIETIEQGAPKTPFMKVGDTVRIEMRNAAGDSIFGAIEQTVVKHD”, for which the “soluble on expression in E. coli” value was “not soluble”.
Under “LTARFTNTELNGYQRLMSYFEEMVKVEDDVCNANKCLLVKLSAEVSDLSEPMRIALRRGADKTIQAMAECIDVGIQDGSIPSGDSALLARQIYYLWNGASLLNKLYQDQEALTQSLTYTQHLLQNTRTCP” stands “not soluble”.
Under “LTSKLVQAGANVKVIMTESACRFVSPLTFQALSRHEVYTDTFKEQNPSVISHIDAADWADLIIVAPATANVIGKLANGIADDMLTTTLLAATAPVWIAPAMNVHMYDHPAVKRNISVLYQDGYCFIEPSEGYLACGYVGKGRLEEPENIVKLAEKHFAEETSAPLEGKHVVITAGPTREAIDPVRFFTNKSTGKMGYALAEAAVQLGARVILISGPVSLDQPKGLAEFIPVQSAADMREAVLSVYDASDIVIKTAAVADFTPKTVFDHKMKKQDGGMTLELKRTVDILKELGEKKKEQILVGFAAETQDIEHYARKKLAAKNLDLIVANDVKANGAGFGADTNIVTIFFKDGHKRELPIMSKLDVSFEILQEIAALSKQTGERS” stands “not soluble”.
Under “LTVGDWLDSIRMGRYRDHFAAGGYSSLGMVLRMNAQDVRALGITLMGHQKKILGSIQTMRAQLTSTQG” stands “soluble”; under “LVLQLQINRNPVLFDFNLQLKTNNFANQTSFDELFNEKTNPLNWQFFSKLKVNHLVYEGNDITQLANTLLQSQFNVLQLDLNKSIYRLNLNAMAQRFEHDWVQPLYAKRTQAKIAY”, “not soluble”.
On to “LVPEAPAPFEEPLPPEATDQWQDRALCAQTDPEAFFPEKGGSTREAKKICMGCEVRHECLEYALAHDERFGIWGGLSERERRRLKRGII”, for which the “soluble on expression in E. coli” value is listed as “soluble”.
Consider “LYVGSLHFNITEDMLRGIFEPFGKIDNIVLMKDSDTGRSKGYGFITFSDSECARRALEQLNGFELAGRPMRVGHVTERLDGG”, for which the “soluble on expression in E. coli” value is “soluble”.
Then “MAAAAKPNNLSLVVHGPGDLRLENYPIPEPGPNEVLLRMHSVGICGSDVHYWEYGRIGNFIVKKPMVLGHEASGTVEKVGSSVKHLKPGDRVAIEPGAPRENDEFCKMGRYNLSPSIFFCATPPDDGNLCRFYKHNAAFCYKLPDNVTFEEGALIEPLSVGIHACRRGGVTLGHKVLVCGAGPIGMVTLLVAKAMGAAQVVVTDLSATRLSKAKEIGADLVLQISKESPQEIARKVEGQLGCKPEVTIECTGAEASIQAGIYATRSGGTLVLVGLGSEMTTVPLLHAAIREVDIKGVFRYCNTWPVAISMLASKSVNVKPLVTHRFPLEKALEAFETFKKGLGLKIMLKCDPSDQNP”, with “not soluble”.
Then “MAAAENRVQQVKGILTMAINNGTLWQVIDMRNNERLNCVDMAVRAGSETCAMLITKVAREYAKHRPRSEVEKKFDSMPTTEEDVTISLGPKTADTFDDNYVKELVRQSESASGHAVATKKLSREKISNSLAKGNVAAVQGREYLKMVKRSSSAHSRLMSQRTFSVESGSIDSSEPSTPQLTSPPADHGVFSSVGEKIRNIFGKKPPLHTKSLSVVQTDRIAAPAVRSSSISNKPLSYQTSGNSNEEDHLRLPQHSSSSESPPSEGPSNSGLFRWSSKDKPMTSTVSTANGVRLPPLSLRRRTNSDPKNRDFTSLGGDE”, with “not soluble”; and “MAADLSAYPDRESELTHALAAMRSRLAAAAEAAGRNVGEIELLPITKFFPATDVAILFRLGCRSVGESREQEASAKMAELNRLLAAAELGHSGGVHWHMVGRIQRNKAGSLARWAHTAHSVDSSRLVTALDRAVVAALAEHRRGERLRVYVQVSLDGDGSRGGVDSTTPGAVDRICAQVQESEGLELVGLMGIPPLDWDPDEAFDRLQSEHNRVRAMFPHAIGLSAGMSNDLEVAVKHGSTCVRVGTALLGPRRLRSP”, with “not soluble”; and “MAADYTHFIHRQHAPPEVCLSAFSGHNDALDFPDSEGSPVSQSLIAALQNPALFPHPVEGFQVIETHISWVLLTGPFAYKVKKPVNFGFLDFTSLDAREHFCGEELRLNQRLTEDLYLEVLPITGSAEAPVLGGDGPAIEYVLKMRQFPQSQLLSTLQANSELTTAHIDEMARQIAHFHLNAPKVPAEHEAGTPESVMAPVRQNFEQIRPFLSDKADLQQLEALEAWAETSFERLKPLLAQRKSEGFIRECHGDIHLGNATLIDGKVVIFDCIEFNEPFRFTDVYADTGFLAMDLEDRGLKSLARRFISQYLELTGDYQGLELLNFYKAYRALVRAKVSLFSMPAEATPVQRATTLRQYRNYANLAESYSTIPSRFLAITSGISAVGKSRVAMRLVEALGAVRLRSDVERKRLFGEQQVPNDPHAGIYSSEASSATYARLHEIAETILRAGFPVVIDATYLKRAQRDAAAKVAEATGTPCLIIDCNAPEAVVASWLAQRQADQNDPSDATLEVIANQQATREALTDEELLRSKRIETNESGSLDALVANIRQRLPGLLEHHHHHH”, with “not soluble”.
Under “MAAEIINGEKVIRKPNALYSDYPRKGGAASTATHYCPGCGHGVLHKLIAEAIDDLGIQDRTVMISPVGCAVFAYYYFDTGNIQVAHGRAPAVGTGVSRAEENAVVISYQGDGDLASIGLNETLQAANRGEKIAVFFVNNTVYGMTGGQMAPTTLIGEKTTTTPEGRDPRFAGYPLHMCELLDNLKAPVFIERVSVSDISHIRKARKAIRKALEVQRDGKGYAFVEVLAACPTNLRMDAEQAVSFINEEMEKEFPLRNFRDDSESTEPLYRGVSDFTTESLEKLYGIEADAGEKPVRADFAPIQTKIAGFGGQGVLSMGIVLAQAGVKANLNASWFPSYGPEQRGGTSNCSVVISGQPIGSPTVYTPDILIAMNRPSLERFEGAVRKGGFILYDSTIGEAETPEGVKAVSVPATEKAKEAGDERAANSFMLGVLLGLNATGLEEEAFKGALAENFAGKPRVIAFNQQMLEAGAEWARENVKI” stands “not soluble”; under “MAAHELKEALETLKETGVRITPQRHAILEYLVNSMAHPTADDIYKALEGKFPNMSVATVYNNLRVFRESGLVKELTYGDASSRFDFVTSDHYHAICENCGKIVDFHYPGLDEVEQLAAHVTGFKVSHHRLEIYGVCQECSKKENH”, “soluble”.
